Test results as given in US20050143285A1 (published 2005).

Legend:
[1] = biological target: T1, α-bungarotoxin (UniProt P60615 22-95); experiment: stopped-flow spectrofluorimetry, excitation 280 nm, emission above 305 nm
T1 sequence: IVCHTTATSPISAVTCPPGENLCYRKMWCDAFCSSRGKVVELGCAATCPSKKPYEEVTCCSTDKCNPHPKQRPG

[2] = biological target: T1, α-bungarotoxin
[3] = biological target: T1, α-bungarotoxin; experiment: stopped-flow spectrofluorimetry

B1: Aplysia californica acetylcholine binding protein (AChBP) (other)
chain: HSQANLMRLKSDLFNRSPMYPGPTKDDPLTVTLGFTLQDIVKADSSTNEVDLVYYEQQRWKLNSLMWDPNEYGNITDFRTSAADIWTPDITAYSSTRPVQVLSPQIAVVTHDGSVMFIPAQRLSFMCDPTGVDSEEGATCAVKFGSWVYSGFEIDLKTDTDQVDLSSYYASSKYEILSATQTRQVQHYSCCPEPYIDVNLVVKFRERRAGNGFFRNLFD
For B1, the kon [1] was 1e+06 M⁻¹ s⁻¹, the Kd [2] was 250 nM and the koff [3] was 0.32 s⁻¹.
